# Measured values reported in US7632506B2, “Identification of new NY-ESO-1 epitopes recognized by CD4+ T-cells” (Ludwig Institute for Cancer Research, priority 2005, dated 2009).
# Experiments:
# HLA-DQB1 03011 = molecular target: T1, HLA-DQB1 03011 (Homo sapiens, UniProt P01909+P01920); assay: ELISPOT with peptide pulsed allogeneic EBV-B-cells of known HLA class II type (HLA restriction); assay type: cell-based
# T1 construct: peptide pulsed allogeneic EBV-B-cells with known HLA class II types as stimulator cells; endogenous in cells; host or cells: allogeneic patient-derived EBV-transformed B-cell lines (NW-2078, NW-2081, NW-2395, NW-2234, NW-2337, NW-1100, MZ-1257)
# T1 sequence (P01920 33-261, other chains not shown): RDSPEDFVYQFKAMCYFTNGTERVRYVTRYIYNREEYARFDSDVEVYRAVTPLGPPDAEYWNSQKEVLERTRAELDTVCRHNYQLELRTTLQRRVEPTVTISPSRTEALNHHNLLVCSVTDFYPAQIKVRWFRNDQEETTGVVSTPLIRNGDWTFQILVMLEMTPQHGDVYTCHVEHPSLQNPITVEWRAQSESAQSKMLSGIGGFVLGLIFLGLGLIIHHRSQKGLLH
# Protocol: In order to determine the HLA molecule to which the novel NY-ESO-1 peptides described above bind, the NW2337 CD4^+ T-cell clones NW2337-CD4-1 and NW2337-CD4-10, were tested in ELISPOT assays using a range of peptide pulsed allogeneic EBV-B-cells with known HLA class II types as stimulator cells as indicated in the following Table. The EBV-B-cell lines were HLA typed using standard methods as described above.
# The NW2337-CD4-1 clone recognized allogenic peptide pulsed EBV-B cells from patients NW-2078, NW-2081, NW-2395, NW-2234, NW-2337, NW-1100 and MZ-1257. The allogenic EBV-B cells were recognized by the T cells when pulsed exogenously with either the NY-ESO-1 p49-66 or p55-72 as observed with autologous EBV-B cells described above. […] None of the EBV-B-cells lines that were not recognized by the T cells expressed this MHC allele. […] Again the NY-ESO-1 positive MZ-1257 EBV-B-cell line was recognized with or without exogenous peptide.
# [1] = system: CD4+ T cell clones NW2337-CD4-1 and NW2337-CD4-10; assay: Peptide titration ELISPOT assay with overlapping NY-ESO-1 peptides; assay type: cell-based, human; conditions: peptide 10 μM to 0.1 nM pulsed onto autologous EBV-B-cells
# Protocol: The CD4^+ T cells were restimulated weekly with 1 μg/ml of the peptide being used. On day 12, each CD4^+ culture was assayed for NY-ESO-1 peptide recognition, using the ELISPOT assay of lager, et al., Proc. Natl. Acad. Sci. USA, 97(9):4760-4765 (2000), incorporated by reference. To elaborate on this procedure, flat-bottomed, 96-well nitrocellulose plates were coated with 5 μg/ml of anti-interferon-gamma antibody and incubated overnight at 4° C. After washing with PBS, plates were blocked with 10% human serum (HS) for 1 hour at 37° C. Depending on the effector:target ratio used, various numbers of presensitized CD4^+ T-cells were added to each well along with 5×10^4 autologous peptide pulsed EBV transfected B cells (“EBV-B cells”) serving as target cells and incubated for 16 hours at 37° C. in TCM without IL-2. Plates were then washed extensively (6 times with a solution of 0.05% Tween 20/PBS), and biotinylated anti-interferon-gamma detection antibody was added at a concentration of 0.5 μg/ml. After incubation for 2 h at 37° C., plates were washed and incubated with ABC-AP Vectastain for 1 hour. Plates were washed again and developed with substrate (BCIP/NPT) until blue spots were visible. The number of blue spots/well represented the proportion of NY-ESO-1 specific CD4^+ T-cells/well was finally counted under the microscope.
# To further identify the exact epitope required for CD4^+ T cell recognition by these two CD4^+ T cell clones, a peptide titration assay was performed using overlapping NY-ESO-1 peptides (FIG. 2) at concentrations between 10 μM and 0.1 nM, pulsed onto autologous EBV-B-cells and tested in ELISPOT assays (FIG. 3).
substance,measurement,setting,value
"P55-72: synthetic 18 mer peptide, amino acids 55-72 of NY-ESO-1 (GPGGGAPRGPHGGAASGL; UniProt P78358 55-72, looked up, fragment) [Peptide P55-72]",MHC class II allele presenting the peptide to NW2337-CD4-10 T cells,HLA-DQB1 03011; only HLA-DQB1 03011 expressing allogenic EBV-B cell lines recognized,HLA-DQB1 03011
same,MHC class II allele presenting the peptide to NW2337-CD4-1 T cells,HLA-DQB1 03011; only shared allele of the recognized peptide pulsed allogenic EBV-B cell lines,HLA-DQB1 03011
same,recognition by clone NW2337-CD4-1,[1],recognized
same,recognition by clone NW2337-CD4-10,[1],able to recognize
